As usually defined, the Km is the substrate concentration at which the rate is half of its maximum. A word on the kcat: it is the number of substrate molecules converted per active site and unit of time at saturation. One may read the kcat/Km as the second-order rate constant that governs catalysis at low substrate concentration.

In publication PMC4888466 one finds Km, kcat and kcat/Km data, which are given here for 1 substance.

Assay in all cases: purified protein
Holding throughout (type): biochemical, Caenorhabditis elegans

Data set [1] has as its system Nc1nc2c(ncn2[C@@H]2O[C@H](COP(=O)(O)OP(=O)(O)OP(=O)(O)O)[C@@H](O)[C@H]2O)c(=O)[nH]1. As to conditions: 1 mM Man-1-P, 5 mM MgCl2, pH 7.5, 25°C.
Data set [2] concerns O=P(O)(O)O[C@H]1O[C@H](CO)[C@@H](O)[C@H](O)[C@@H]1O. Particulars: 1 mM GTP, 5 mM MgCl2, pH 7.5, 25°C.
In data set [3] the test system is O=P(O)(O)O[C@H]1O[C@H](CO)[C@@H](O)[C@H](O)[C@H]1O. As to conditions: 1 mM GTP, 5 mM MgCl2, pH 7.5, 25°C.

On to GMP-1 (Caenorhabditis elegans), for which, in data set [1], the Km is 16.04 ± 1.68 µM, the turnover number (kcat) came to 29.1 ± 0.58 s⁻¹ and the kcat/Km is 1.81e+06 ± 190000 M⁻¹ s⁻¹. For the same substance, in data set [2], the Km amounted to 18.49 ± 2.14 µM, the turnover number (kcat) came out at 30.3 ± 0.69 s⁻¹ and the kcat/Km came out at 1.64e+06 ± 190000 M⁻¹ s⁻¹. In addition, in data set [3], the Km worked out at 508.90 ± 118.40 µM, the catalytic constant (kcat) turned out to be 33.1 ± 2.9 s⁻¹ and the kcat/Km amounted to 65000 ± 16000 M⁻¹ s⁻¹.
